Data on 4 molecules can be found in US20050129678A1 (published 2005).

To fix the notation:
T1: GST-Yil033C (yeast, UniProt P07278 1-416)
T1 construct: also called Yil033C-Bcy1; Yil033C-Bcyl; not shown: glutathione S-transferase (GST) fusion tag
T1 sequence (looked up): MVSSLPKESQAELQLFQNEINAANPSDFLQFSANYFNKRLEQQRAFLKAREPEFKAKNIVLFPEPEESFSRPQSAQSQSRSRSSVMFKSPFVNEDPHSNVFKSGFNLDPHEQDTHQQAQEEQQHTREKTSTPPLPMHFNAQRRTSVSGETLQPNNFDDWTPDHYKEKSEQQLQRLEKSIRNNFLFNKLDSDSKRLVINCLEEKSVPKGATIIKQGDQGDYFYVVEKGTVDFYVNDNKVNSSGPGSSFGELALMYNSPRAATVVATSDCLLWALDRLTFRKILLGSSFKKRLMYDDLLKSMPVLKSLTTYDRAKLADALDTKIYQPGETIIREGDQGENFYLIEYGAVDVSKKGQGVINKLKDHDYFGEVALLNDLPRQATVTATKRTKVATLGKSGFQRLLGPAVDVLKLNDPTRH

B1: GST-Yjl164C-Tpk1 (enzyme, UniProt P06244 1-397, looked up)
chain: MSTEEQNGGGQKSLDDRQGEESQKGETSERETTATESGNESKSVEKEGGETQEKPKQPHVTYYNEEQYKQFIAQARVTSGKYSLQDFQILRTLGTGSFGRVHLIRSRHNGRYYAMKVLKKEIVVRLKQVEHTNDERLMLSIVTHPFIIRMWGTFQDAQQIFMIMDYIEGGELFSLLRKSQRFPNPVAKFYAAEVCLALEYLHSKDIIYRDLKPENILLDKNGHIKITDFGFAKYVPDVTYTLCGTPDYIAPEVVSTKPYNKSIDWWSFGILIYEMLAGYTPFYDSNTMKTYEKILNAELRFPPFFNEDVKDLLSRLITRDLSQRLGNLQNGTEDVKNHPWFKEVVWEKLLSRNIETPYEPPIQQGQGDTSQFDKYPEEDINYGVQGEDPYADLFRDF
notes: not shown: glutathione S-transferase (GST) fusion tag
B2: endogenous Tpk1 (enzyme, yeast, UniProt P06244 2-397, looked up)
chain: STEEQNGGGQKSLDDRQGEESQKGETSERETTATESGNESKSVEKEGGETQEKPKQPHVTYYNEEQYKQFIAQARVTSGKYSLQDFQILRTLGTGSFGRVHLIRSRHNGRYYAMKVLKKEIVVRLKQVEHTNDERLMLSIVTHPFIIRMWGTFQDAQQIFMIMDYIEGGELFSLLRKSQRFPNPVAKFYAAEVCLALEYLHSKDIIYRDLKPENILLDKNGHIKITDFGFAKYVPDVTYTLCGTPDYIAPEVVSTKPYNKSIDWWSFGILIYEMLAGYTPFYDSNTMKTYEKILNAELRFPPFFNEDVKDLLSRLITRDLSQRLGNLQNGTEDVKNHPWFKEVVWEKLLSRNIETPYEPPIQQGQGDTSQFDKYPEEDINYGVQGEDPYADLFRDF
notes: Untagged yeast Tpk1 found in a GST fusion preparation; also called Tpk1wt; a protein with the same molecular weight as Tpk1
B3: GST-Ypl203W (enzyme, UniProt P06245 1-380, looked up)
chain: MEFVAERAQPVGQTIQQQNVNTYGQGVLQPHHDLQQRQQQQQQRQHQQLLTSQLPQKSLVSKGKYTLHDFQIMRTLGTGSFGRVHLVRSVHNGRYYAIKVLKKQQVVKMKQVEHTNDERRMLKLVEHPFLIRMWGTFQDARNIFMVMDYIEGGELFSLLRKSQRFPNPVAKFYAAEVILALEYLHAHNIIYRDLKPENILLDRNGHIKITDFGFAKEVQTVTWTLCGTPDYIAPEVITTKPYNKSVDWWSLGVLIYEMLAGYTPFYDTTPMKTYEKILQGKVVYPPYFHPDVVDLLSKLITADLTRRIGNLQSGSRDIKAHPWFSEVVWERLLAKDIETPYEPPITSGIGDTSLFDQYPEEQLDYGIQGDDPYAEYFQDF
notes: also called Ypl203W-Tpk2; Yp1203W; not shown: glutathione S-transferase (GST) fusion tag
B4: GST-Ykl166C (enzyme, UniProt P05986 1-398, looked up)
chain: MYVDPMNNNEIRKLSITAKTETTPDNVGQDIPVNAHSVHEECSSNTPVEINGRNSGKLKEEASAGICLVKKPMLQYRDTSGKYSLSDFQILRTLGTGSFGRVHLIRSNHNGRFYALKTLKKHTIVKLKQVEHTNDERRMLSIVSHPFIIRMWGTFQDSQQVFMVMDYIEGGELFSLLRKSQRFPNPVAKFYAAEVCLALEYLHSKDIIYRDLKPENILLDKNGHIKITDFGFAKYVPDVTYTLCGTPDYIAPEVVSTKPYNKSVDWWSFGVLIYEMLAGYTPFYNSNTMKTYENILNAELKFPPFFHPDAQDLLKKLITRDLSERLGNLQNGSEDVKNHPWFNEVIWEKLLARYIETPYEPPIQQGQGDTSQFDRYPEEEFNYGIQGEDPYMDLMKEF
notes: also called Ykl166C-Tpk3; Tpk3; not shown: glutathione S-transferase (GST) fusion tag

One assay deals with T1, GST-Yil033C. Put plainly: microarray-based protein-protein interaction.
The target of assay [1] is B4. Kind of assay: microarray-based protein interaction experiment.
The target of assay [2] is B4. Put plainly: co-purification with the GST fusion, Western blot with anti-Tpk1. The source says:
(§1) Tpk1 is a protein kinase involved in pseudohyphal growth and ras signal transduction (Robertson et al., 1998, Pro Natl Acad Sci USA 95, 13783-7; Tokiwa et al., 1994, Nature 371, 342-5). […] Three of these proteins, Ykl166C-Tpk3 (a protein kinase), Ypl203W-Tpk2 (a protein kinase) and Yil033C-Bcyl (a cAMP-dependent protein kinase inhibitor) have been shown by mass spectroscopy to be co-immunoprecipitated with Tpk1 (Ho et al., 2002, Nature 415, 180-3).
(§2) SDS-PAGE and Western analyses of Protein Samples. Purified proteins were mixed with sample buffer, heated and run in 5%/10% SDS-PAGE gels, transferred to nitrocellulose and blocked overnight with 1% BSA in TBST. Subsequently, blots were probed with primary antibodies for 2 hours, washed three times with TBST, probed with secondary antibodies conjugated to HRP for 1 hour and washed three times with TBST. Femto-reagent (Pierce Co., Milwaukee) was added and images acquired with an Alpha Innotech Imaging station.

The target of the assay “endogenous Tpk1” is B2. The description is as above.
Source text: as §1, §2

With B1, the binding result is reported as “binds” in the assay with GST-Yil033C and “no binding” with GST-Ykl166C [1].
On to B2, for which the binding result in the assay with GST-Ykl166C [2] was “no binding”.
Turning to B3, the binding result with GST-Yil033C is on record as “binds”; with endogenous Tpk1 it was “no binding”.
Turning to B4, the binding result in the assay with GST-Yil033C was “binds”.
